Source: patent US20040185525A1, “Process for producing peptide” (priority 2001, published 2004)

Target: T1, GPR8 (Homo sapiens, UniProt P48146)
T1 construct: expressed in transfected cells; host or cells: CHO cells (membrane fraction)
Assay: GTPγS binding activity using a cell membrane fraction of CHO cells expressing GPR8
Type: biochemical
Conditions: fraction containing cell membrane of CHO cells expressing GPR8; compared with synthetic hGPR8L; process of Example 6 in WO 01/98494
Source text: FIG. 4 is a graph showing the GTPγS binding activity of hGPR8L (SEQ ID NO: 44) of Example 1 to 3 toward CHO cells expressing GPR8. The horizontal axis indicates the concentration of hGPR8L while the vertical axis indicates the GTPyS binding activity. The solid points (-•-) indicate the results obtained for a synthetic hGPR8L (SEQ ID NO: 44) while the open points (-∘-) indicate the results obtained for hGPR8L (SEQ ID NO: 44) produced by the method of the present invention (tandem repeat technique).
Using a fraction containing cell membrane of CHO cells expressing GPR8, the GTPγS binding activity of the hGPR8L obtained above was determined by the same process as described in Example 6 in WO 01/98494.

T1 sequence (P48146 whole entry): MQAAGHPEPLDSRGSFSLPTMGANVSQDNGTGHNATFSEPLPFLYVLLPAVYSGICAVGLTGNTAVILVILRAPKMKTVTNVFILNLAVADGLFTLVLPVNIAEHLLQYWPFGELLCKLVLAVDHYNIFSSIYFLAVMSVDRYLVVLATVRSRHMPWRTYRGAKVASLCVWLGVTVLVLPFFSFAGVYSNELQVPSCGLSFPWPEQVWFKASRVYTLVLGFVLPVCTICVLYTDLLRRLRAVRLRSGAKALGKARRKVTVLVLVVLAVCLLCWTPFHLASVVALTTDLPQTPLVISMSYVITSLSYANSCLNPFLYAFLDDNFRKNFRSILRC

**Q.** How did the GTPγS binding activity turn out when “hGPR8L: 23-residue ligand polypeptide for human GPR8 (SEQ ID NO: 44), produced by the tandem repeat technique in E. coli (WYKHVASPRYHTVGRAAGLLMGL; Human)” was run?
**A.** equivalent to that of the artificially synthesized protein
